First the molecules themselves.
B1: LINE1-mini (parent)
chain: GGCAGAGCUCAACACAGCGUGGCAAAGUGGCUGUGGCUAGACUGCC

In this data set the parent is B1. Kind of data set: self-cleavage, relative activity (ratio to wild type); higher = more cleavage; in vitro, sequencing; the parent is a self-cleaving ribozyme.
On to AGCAGAGCUCAACACAGCGUUGCAAAGUGGCUGUGGCUAGACUGCC [G1A G21U], for which the self-cleavage stood at 1.38.
As to AGCAGAGCUCAACACAGCGUCGCAAAGUGGCUGUGGCUAGACUGCC [G1A G21C], the self-cleavage is 2.09.
The figure for AGCAGAGCUCAACACAGCGUAGCAAAGUGGCUGUGGCUAGACUGCC [G1A G21A] is 1.86; for AGCAGAGCUCAACACAGCGUGGCAAACUGGCUGUGGCUAGACUGCC [G1A G27C] it is 0.86; for AGCAGAGCUCAACACAGCGUGGCAAAAUGGCUGUGGCUAGACUGCC [G1A G27A] it is 1.81.
As for AGCAGAGCUCAACACAGCGUGGCAAAUUGGCUGUGGCUAGACUGCC [G1A G27U], the self-cleavage was 1.95.
For AGCAGAGCUCAACACAGCGUGGCAAAGUGGCUGUGGCUAGUCUGCC [G1A A41U], the self-cleavage is 0.97.
The figure for AGCAGAGCUCAACACAGCGUGGCAAAGUGGCUGUGGCUAGCCUGCC [G1A A41C] is 0.09; for AGCAGAGCUCAACACAGCGUGGCAAAGUGGCUGUGGCUAGGCUGCC [G1A A41G] it is 0.26.
For AGCCGAGCUCAACACAGCGUGGCAAAGUGGCUGUGGCUAGACUGCC [G1A A4C] the value was 0.08.
Regarding AGCUGAGCUCAACACAGCGUGGCAAAGUGGCUGUGGCUAGACUGCC [G1A A4U], the self-cleavage stood at 0.27.
Take AGCGGAGCUCAACACAGCGUGGCAAAGUGGCUGUGGCUAGACUGCC [G1A A4G]: the self-cleavage was determined as 0.31.
The figure for AGCAGAGCUCCACACAGCGUGGCAAAGUGGCUGUGGCUAGACUGCC [G1A A11C] is 0.04; for AGCAGAGCUCGACACAGCGUGGCAAAGUGGCUGUGGCUAGACUGCC [G1A A11G] it is 0.06.
For AGCAGAGCUCUACACAGCGUGGCAAAGUGGCUGUGGCUAGACUGCC [G1A A11U], the self-cleavage came out at 0.17.
The figure for AACAGAGCUCAACACAGCGUGGCAAAGUGGCUGUGGCUAGACUGCC [G1A G2A] is 1.83; for AUCAGAGCUCAACACAGCGUGGCAAAGUGGCUGUGGCUAGACUGCC [G1A G2U] it is 0.47; for ACCAGAGCUCAACACAGCGUGGCAAAGUGGCUGUGGCUAGACUGCC [G1A G2C] it is 0.24.
The figure for AGCAGAGCUCAACACAGCGUGGCAAAGUGGCUGUGGCUAGACUGCA [G1A C46A] is 2.61; for AGCAGAGCUCAACACAGCGUGGCAAAGUGGCUGUGGCUAGACUGCG [G1A C46G] it is 2.92; for AGCAGAGCUCAACACAGCGUGGCAAAGUGGCUGUGGCUAGACUGCU [G1A C46U] it is 2.95.
For AGUAGAGCUCAACACAGCGUGGCAAAGUGGCUGUGGCUAGACUGCC [G1A C3U] the value was 0.47.
For the variant AGGAGAGCUCAACACAGCGUGGCAAAGUGGCUGUGGCUAGACUGCC [G1A C3G], the self-cleavage amounted to 0.56.
For AGCAGAGCUCAACACAGCGUGGCAAAGUGGCUGUGUCUAGACUGCC [G1A G36U] the value was 0.1; for AGCAGAGCUCAACACAGCGUGGCAAAGUGGCUGUGCCUAGACUGCC [G1A G36C], 0.11; for AGCAGAGCUCAACACAGCGUGGCAAAGUGGCUGUGACUAGACUGCC [G1A G36A], 0.18.
The figure for AGCAGAGCUCAACACAGCGUGGCAAAGUGGCUGUGGCUAAACUGCC [G1A G40A] is 0.11; for AGCAGAGCUCAACACAGCGUGGCAAAGUGGCUGUGGCUACACUGCC [G1A G40C] it is 0.07.
The figure for AGCAGAGCUCAACACAGCGUGGCAAAGUGGCUGUGGCUAUACUGCC [G1A G40U] is 0.1.
As to AGCAGAGCUCAACUCAGCGUGGCAAAGUGGCUGUGGCUAGACUGCC [G1A A14U], the self-cleavage was 0.27.
With AGCAGAGCUCAACCCAGCGUGGCAAAGUGGCUGUGGCUAGACUGCC [G1A A14C], the self-cleavage is 0.1.
The figure for AGCAGAGCUCAACGCAGCGUGGCAAAGUGGCUGUGGCUAGACUGCC [G1A A14G] is 0.39.
For AGCAGAGCUCAACACAUCGUGGCAAAGUGGCUGUGGCUAGACUGCC [G1A G17U] the value was 0.13.
Regarding AGCAGAGCUCAACACACCGUGGCAAAGUGGCUGUGGCUAGACUGCC [G1A G17C], the self-cleavage was 0.18.
The figure for AGCAGAGCUCAACACAACGUGGCAAAGUGGCUGUGGCUAGACUGCC [G1A G17A] is 0.15; for AGCAGAGCUCAACACAGCGUGCCAAAGUGGCUGUGGCUAGACUGCC [G1A G22C] it is 1.94.
For AGCAGAGCUCAACACAGCGUGACAAAGUGGCUGUGGCUAGACUGCC [G1A G22A] the value was 0.94; for AGCACAGCUCAACACAGCGUGGCAAAGUGGCUGUGGCUAGACUGCC [G1A G5C], 0.08; for AGCAUAGCUCAACACAGCGUGGCAAAGUGGCUGUGGCUAGACUGCC [G1A G5U], 0.08.
Regarding AGCAAAGCUCAACACAGCGUGGCAAAGUGGCUGUGGCUAGACUGCC [G1A G5A], the self-cleavage came to 0.2.
Regarding AGCAGAGCUCAACACAGCGUGGCAAGGUGGCUGUGGCUAGACUGCC [G1A A26G], the self-cleavage is 1.58.
The figure for AGCAGAGCUCAACACAGCGUGGCAAUGUGGCUGUGGCUAGACUGCC [G1A A26U] is 0.53.
The figure for AGCAGAGCUCAACACAGCGUGGCAACGUGGCUGUGGCUAGACUGCC [G1A A26C] is 0.78.
For AGCAGCGCUCAACACAGCGUGGCAAAGUGGCUGUGGCUAGACUGCC [G1A A6C] the value was 0.81; for AGCAGUGCUCAACACAGCGUGGCAAAGUGGCUGUGGCUAGACUGCC [G1A A6U], 1.55; for AGCAGGGCUCAACACAGCGUGGCAAAGUGGCUGUGGCUAGACUGCC [G1A A6G], 0.09.
With AGCAGAGCUCAACACAGCGUGGCAAAGUGGCUGUCGCUAGACUGCC [G1A G35C], the self-cleavage is 0.1.
Turning to AGCAGAGCUCAACACAGCGUGGCAAAGUGGCUGUAGCUAGACUGCC [G1A G35A], the self-cleavage turned out to be 0.2.
The figure for AGCAGAGCUCAACACAGCGUGGCAAAGUGGCUGUUGCUAGACUGCC [G1A G35U] is 0.17.
With AGCAGAGCUCAACACAGCGUGGCACAGUGGCUGUGGCUAGACUGCC [G1A A25C], the self-cleavage was determined as 1.36.
Take AGCAGAGCUCAACACAGCGUGGCAUAGUGGCUGUGGCUAGACUGCC [G1A A25U]: the self-cleavage was determined as 1.09.
For AGCAGAGCUCAACACAGCGUGGCAGAGUGGCUGUGGCUAGACUGCC [G1A A25G] the value was 0.39; for AGCAGAGCUCAACACAGCGUGGCUAAGUGGCUGUGGCUAGACUGCC [G1A A24U], 1.15; for AGCAGAGCUCAACACAGCGUGGCGAAGUGGCUGUGGCUAGACUGCC [G1A A24G], 2.89.
In the case of AGCAGAGCUCAACACAGCGUGGCCAAGUGGCUGUGGCUAGACUGCC [G1A A24C], the self-cleavage worked out at 0.56.
Turning to AGCAGAGCUCAACACAGCGUGGCAAAGUGGCUGUGGCUUGACUGCC [G1A A39U], the self-cleavage was 1.46.
